Test results: patent US12269859B2, “Synthetic immune receptors and methods of use thereof” (Angeles Therapeutics, Inc., priority 2016, dated 2025)

Tested on: target antigen-expressing cell line
Assay: Jurkat NFAT-GFP assay, coculture with target cell lines expressing the respective target antigen (summary Table 10A)
Format: cell-based, human
Set-up: key: The signs +/−, +, 2+ etc. after the name of the cell lines indicate the relative degree of positivity on the Jurkat-NFAT-GFP assay as measured by the % GFP positive cells; +: relative degree of positivity on the Jurkat-NFAT-GFP assay as measured by the % GFP positive cells; 2+: relative degree of positivity on the Jurkat-NFAT-GFP assay as measured by the % GFP positive cells
Conditions: relative % GFP positive cells; for NFAT-GFP ASSAY Positive Cell lines: RAJI: SIR-expressing Jurkat-NFAT-GFP cells cocultured with RAJI
Summary of the method: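 Coculture of SIR-bearing Jurkat NFAT-GFP reporters with target cells, ~1:2 E:T, ~4–18 h. FACS quantified % GFP+ cells, ranked semi-quantitatively against parental Jurkat-NFAT-GFP.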

B1: 030217-J05 (protein)
chain: MALPVTALLLPLALLLHAARPDEIVLTQSPATLSLSPGERATLSCSASSSVSYMHWYQQKPGQAPRLLIYDTSKLASGIPARFSGSGSGTDFTLTISSLEPEDVAVYYCFQGSVYPFTFGQGTKLEIKRGGGGSGGGGSGGGGSQVQLQESGPGLVKPSQTLSLTCTVSGGSISTSGMGVGWIRQHPGKGLEWIGHIWWDDDKRYNPALKSRVTISVDTSKNQFSLKLSSVTAADTAVYYCARMELWSYYFDYWGQGTLVTVSSLEGKPIPNPLLGLDSTGSGEDLKNVFPPEVAVFEPSKAEIAHTQKATLVCLATGFYPDHVELSWWVNGKEVHSGVCTDPQPLKEQPALNDSRYCLSSRLRVSATFWQNPRNHFRCQVQFYGLSENDEWTQDRAKPVTQIVSAEAWGRADCGITSASYHQGVLSATILYEILLGKATLYAVLVSALVLMAMVKRKDSRGRAKRSGSGATNFSLLKQAGDVEENPGPTSMALPVTALLLPLALLLHAARPDIQMTQSPASLSASVGETVTIICRASVNIYSYLAWYQQKQGKSPQLLVYNAKILAEGVPSRFSGSGSGTQFSLKINSLQPEDFGSYYCQHHYGTFTFGSGTKLEIKRGGGGSGGGGSGGGGSQVQLKESGPGLVAPSQSLSITCTISGFSLTSYGVHWVRQPPGKGLEWLVVIWSDGSTTYNSALKSRLSISKDNSKSQVFLKMNSLQTDDTAIYYCASHYGSTLAFASWGHGTLVTVSAATREQKLISEEDGSGIQNPDPAVYQLRDSKSSDKSVCLFTDFDSQTNVSQSKDSDVYITDKCVLDMRSMDFKSNSAVAWSNKSDFACANAFNNSIIPEDTFFPSSDVPCDVKLVEKSFETDTNLNFQNLSVIGFRILLLKVAGFNLLMTLRLWSSRAKRSGSGVKQTLNFDLLKLAGDVESNPGPSRGHMTEYKPTVRLATRDDVPRAVRTLAAAFADYPATRHTVDPDRHIERVTELQELFLTRVGLDIGKVWVADDGAAVAVWTTPESVEAGAVFAEIGPRMAELSGSRLAAQQQMEGLLAPHRPKEPAWFLATVGVSPDHQGKGLGSAVVLPGVEAAERAGVPAFLETSAPRNLPFYERLGFTVTADVEVPEGPRTWCMTRKPGA
NFAT-GFP ASSAY Positive Cell lines: NALM6 (SIR-expressing Jurkat-NFAT-GFP cells cocultured with NALM6): (+/−)
NFAT-GFP ASSAY Positive Cell lines: RAJI: RAJI (2+), NALM6

B2: 040716-I04 (protein)
chain: MALPVTALLLPLALLLHAARPDEIVLTQSPATLSLSPGERATLSCSASSSVSYMHWYQQKPGQAPRLLIYDTSKLASGIPARFSGSGSGTDFTLTISSLEPEDVAVYYCFQGSVYPFTFGQGTKLEIKRGGGGSGGGGSGGGGSQVQLQESGPGLVKPSQTLSLTCTVSGGSISTSGMGVGWIRQHPGKGLEWIGHIWWDDDKRYNPALKSRVTISVDTSKNQFSLKLSSVTAADTAVYYCARMELWSYYFDYWGQGTLVTVSSLEGKPIPNPLLGLDSTGSGEDLKNVFPPEVAVFEPSKAEIAHTQKATLVCLATGFYPDHVELSWWVNGKEVHSGVCTDPQPLKEQPALNDSRYCLSSRLRVSATFWQNPRNHFRCQVQFYGLSENDEWTQDRAKPVTQIVSAEAWGRADCGITSASYHQGVLSATILYEILLGKATLYAVLVSALVLMAMVKRKDSRGRAKRSGSGATNFSLLKQAGDVEENPGPTSTMALPVTALLLPLALLLHAARPDIVMTQTPLTLSVTIGQPASISCKSSQSLLDSDGKTYLNWLLQRPGQSPERLIYLVSKLDSGVPDRFTGSGSGTDFTLKISRVEAEDLGVYCCWQGTHFPYTFGGGTKVEIKGGGGGSGGGGSGGGGSQVQLQQPGAELVRPGASVKLSCKASGYTFTSYWMNWVKQRPGQGLEWIGMIDPSDSETHYNHIFKDKATLTVDKSSSTAYLQLSSLTSEDSAVYYCARNLYLWGQGTSVTVSSTREQKLISEEDGSGIQNPDPAVYQLRDSKSSDKSVCLFTDFDSQTNVSQSKDSDVYITDKCVLDMRSMDFKSNSAVAWSNKSDFACANAFNNSIIPEDTFFPSSDVPCDVKLVEKSFETDTNLNFQNLSVIGFRILLLKVAGFNLLMTLRLWSSRAKRSGSGVKQTLNFDLLKLAGDVESNPGPSRGHMTEYKPTVRLATRDDVPRAVRTLAAAFADYPATRHTVDPDRHIERVTELQELFLTRVGLDIGKVWVADDGAAVAVWTTPESVEAGAVFAEIGPRMAELSGSRLAAQQQMEGLLAPHRPKEPAWFLATVGVSPDHQGKGLGSAVVLPGVEAAERAGVPAFLETSAPRNLPFYERLGFTVTADVEVPEGPRTWCMTRKPGA
modifications: Synthetic polynucleotide encoding a SIR
NFAT-GFP ASSAY Positive Cell lines: L363 (SIR-expressing Jurkat-NFAT-GFP cells cocultured with L363): (+/−), L363 (+/−)
NFAT-GFP ASSAY Positive Cell lines: RAJI: RAJI (+/−), U266
NFAT-GFP ASSAY Positive Cell lines: U266 (SIR-expressing Jurkat-NFAT-GFP cells cocultured with U266): (+/−), L363 (+/−)

B3: 041216 G04 (protein)
chain: MALPVTALLLPLALLLHAARPDEIVLTQSPATLSLSPGERATLSCSASSSVSYMHWYQQKPGQAPRLLIYDTSKLASGIPARFSGSGSGTDFTLTISSLEPEDVAVYYCFQGSVYPFTFGQGTKLEIKRGGGGSGGGGSGGGGSQVQLQESGPGLVKPSQTLSLTCTVSGGSISTSGMGVGWIRQHPGKGLEWIGHIWWDDDKRYNPALKSRVTISVDTSKNQFSLKLSSVTAADTAVYYCARMELWSYYFDYWGQGTLVTVSSLEGKPIPNPLLGLDSTGSGEDLKNVFPPEVAVFEPSKAEIAHTQKATLVCLATGFYPDHVELSWWVNGKEVHSGVCTDPQPLKEQPALNDSRYCLSSRLRVSATFWQNPRNHFRCQVQFYGLSENDEWTQDRAKPVTQIVSAEAWGRADCGITSASYHQGVLSATILYEILLGKATLYAVLVSALVLMAMVKRKDSRGRAKRSGSGATNFSLLKQAGDVEENPGPTSMDWIWRILFLVGAATGAHSFEVQLVESGGGLVQAGGSLRLSCAASGSIFSGNVMGWYRRQAPGKEREWVAAIASGGSIYYRDSVKGRFTISRDNAKNTVYLQMNSLKPEDTAVYYCNSHPPTLPYWGLGTQVTVSSTREQKLISEEDGSGIQNPDPAVYQLRDSKSSDKSVCLFTDFDSQTNVSQSKDSDVYITDKCVLDMRSMDFKSNSAVAWSNKSDFACANAFNNSIIPEDTFFPSSDVPCDVKLVEKSFETDTNLNFQNLSVIGFRILLLKVAGFNLLMTLRLWSSRAKRSGSGVKQTLNFDLLKLAGDVESNPGPSRGHMTEYKPTVRLATRDDVPRAVRTLAAAFADYPATRHTVDPDRHIERVTELQELFLTRVGLDIGKVWVADDGAAVAVWTTPESVEAGAVFAEIGPRMAELSGSRLAAQQQMEGLLAPHRPKEPAWFLATVGVSPDHQGKGLGSAVVLPGVEAAERAGVPAFLETSAPRNLPFYERLGFTVTADVEVPEGPRTWCMTRKPGA
modifications: Synthetic polynucleotide encoding a SIR
NFAT-GFP ASSAY Positive Cell lines: RAJI: RAJI (+/−)
